Test results reported in the supplement of paper PMC10567573.
± gives the standard deviation.

Experiment: protein stability index of a GFP-peptide fusion (GPS, HEK-293T) (PSI 1-6); higher = more stable
[1] = treatment: DMSO, c terminus: a fixed tail appended
[2] = treatment: MLN4924 1 uM, 8 h, c terminus: a fixed tail appended
[3] = treatment: DMSO, c terminus: native
[4] = treatment: MLN4924 1 uM, 8 h, c terminus: native
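Note: 24-mer peptide tiles fused after GFP, lentivirally expressed, FACS-sorted into six equal bins by GFP/DsRed ratio, decoded by Illumina sequencing, PSI is the read-weighted mean bin number.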

Row | Sequence | protein stability index [1] | protein stability index [2] | protein stability index [3] | protein stability index [4]
1 | AAAEFSSLLRRIKGKLFTWNILKT [SLC35F2] | 3.05 ± 0.56 | 2.94 ± 0.28 | – | –
2 | AAAGAVGLERRDWSPSPPATPEQG [SPDEF] | 5.09 ± 0.26 | 5.18 ± 0.17 | – | –
3 | AADVWSLGVALFTMLAGHYPFQDS [TRIB3] | 2.96 ± 0.098 | 2.94 ± 0.2 | – | –
4 | AAKMYHQLKKCETRKLSPGKKRCK [SMG5] | 3.92 ± 0.35 | 4.07 ± 0.37 | – | –
5 | AANVVSAKRNRLAPAHVDEQVFLY [ZBED1] | 2.55 ± 0.12 | 2.47 ± 0.27 | – | –
6 | AASLAGCLGALCENTCLLRGFSGG [TSPAN10] | 2.22 ± 0.57 | 2.37 ± 0.58 | – | –
7 | ADFGSATFDHEHHTTIVATRHYRP [CLK3] | 3.79 ± 0.21 | 3.92 ± 0.29 | – | –
8 | ADGQRHHSKLLVSGFWGVARHFNY [DHCR7] | 2.27 ± 0.43 | 2.14 ± 0.27 | – | –
9 | ADIPQDQLVVMHPTPQVDELDILP [BTBD10] | 5.11 ± 0.17 | 5.24 ± 0.15 | – | –
10 | ADSEQADIARMLYKDTCHELDELQ [ZMYND11] | 5.14 ± 0.24 | 4.99 ± 0.2 | – | –
11 | ADSFESSDSLLQSWNSQSSLLDVQ [ETS2] | 4.38 ± 0.12 | 4.56 ± 0.12 | – | –
12 | AEKKREAKQRAKEAQERELRKREK [LRRC59] | 5.38 ± 0.12 | 5.33 ± 0.11 | – | –
13 | AEKLKVQALKDRGLSIPRADTLDE [LSM1] | 4.93 ± 0.3 | 4.98 ± 0.22 | – | –
14 | AEVSVISEADPQALLQAMKDLDGM [FBF1] | 4.52 ± 0.19 | 4.36 ± 0.2 | – | –
15 | AFADIIHSLKESGQLWLDAYLHQ [FADS1] | – | – | 2.7 ± 0.78 | 2.49 ± 0.58
16 | AFVSNSPKLFCPKNRSFDIDAIYS [PLD5] | 2.15 ± 0.8 | 2.51 ± 0.69 | – | –
17 | AGCCQVFDALDDYEHHYHTLHGNV [ZNF511] | 2.84 ± 0.35 | 2.88 ± 0.23 | – | –
18 | AGDVIFLLSRINKDWLEGTVRGAT [NCF4] | 3.21 ± 0.31 | 3.2 ± 0.4 | – | –
19 | AGGSARRPDTGDDAAGHGFCYCAG [GMCL1] | 4.11 ± 0.46 | 4.13 ± 0.19 | – | –
20 | AGKALVISGREVFEFRPELVNDDD [ZC3H15] | 4.21 ± 0.57 | 4.23 ± 0.35 | – | –
21 | AGRNVLRWDLSPEQIKTRTEELIV [NLN] | 2.52 ± 0.34 | 3.23 ± 0.47 | – | –
22 | AGRPRAERRPRRVEAERPHSLIGV [FAM189A2] | 4.05 ± 0.15 | 3.94 ± 0.21 | – | –
23 | AGTPGYLSPEVLRKDPYGKPVDMW [CAMK2D] | 3.34 ± 0.5 | 3.25 ± 0.42 | – | –

Row | Sequence | protein stability index [1] | protein stability index [2] | protein stability index [3] | protein stability index [4]
24 | AIRRRNVRGEDSGRKPERRRLKTT [DAPK3] | 4.644 ± 0.043 | 4.69 ± 0.9 | – | –
25 | AKARDLYKGRQLQGCPGAKKHEFL [SMOC2] | 3.03 ± 0.3 | 3.2 ± 0.34 | – | –
26 | AKGKVQAELSQPLTAGGAISELL [RBBP5] | – | – | 4.18 ± 0.3 | 3.91 ± 0.34
27 | AKLALFYDWLFFSPDKDSIMNIEP [INTS3] | 2.04 ± 0.34 | 1.9 ± 0.43 | – | –
28 | AKMLLHEGQHPAQLRSDVCTPGGT [PYCR3] | 4.29 ± 0.5 | 4.58 ± 0.9 | – | –
29 | AKNLQEAEEWYKSKYADLSDAANR [PRPH] | 4.43 ± 0.18 | 4.48 ± 0.22 | – | –
30 | AKVKLVFVEDQAVVETVFFLTSRT [ZSWIM9] | 3.31 ± 0.38 | 3.01 ± 0.5 | – | –
31 | ALATRALPCPAHVVFRYQGVRMS [FCHSD1] | – | – | 3.1 ± 0.67 | 2.58 ± 0.84
32 | ALLDSLPPPVESELALFQMSVLWL [KLHL14] | 2.45 ± 0.23 | 2.03 ± 0.19 | – | –
33 | ALSTMGTLICRKLGGVKKSATLRS [TPD52L3] | 2.6 ± 0.2 | 2.67 ± 0.31 | – | –
34 | AMFRLEHGEADRSTLKKALPTLSH [YJU2B] | 3.33 ± 0.16 | 3.38 ± 0.17 | – | –
35 | AMPDPTVPDSDIKALTTLCDLADR [ESRRG] | 5.11 ± 0.28 | 5.15 ± 0.16 | – | –
36 | ANAFQQEAQTSGKERLLLSAAVPA [CHIT1] | 4.03 ± 0.33 | 4.18 ± 0.28 | – | –
37 | ANQLIDIISSDELNVRSEEQVFNA [KLHL20] | 4.42 ± 0.21 | 4.34 ± 0.25 | – | –
38 | ANSDRASIGRRRTELRRSGSSRSP [PLEKHN1] | 4.79 ± 0.3 | 5.2 ± 0.21 | – | –
39 | ANTIRGGGCYFGPDVTQQLLQKYN [PPEF2] | 2.44 ± 0.35 | 2.59 ± 0.41 | – | –
40 | APLGYKEPERQVQHEESTEGEADH [UFD1] | 5.55 ± 0.22 | 5.5 ± 0.3 | – | –
41 | APLVQPSKNDNGKPDSVGLPPCAV [PCMTD1] | 5.09 ± 0.15 | 5.07 ± 0.22 | – | –
42 | APNAWQVIKGVLFRIFIIWAISSW [CLPTM1] | 2.94 ± 0.19 | 2.89 ± 0.53 | – | –
43 | AQDSIELLTTSGIQFKKHEEEGIE [CNOT7] | 5.46 ± 0.24 | 5.48 ± 0.34 | – | –
44 | AQPNYIPTQQDVLRTRVKTTGIVE [GNAI1] | 4.19 ± 0.23 | 4.27 ± 0.36 | – | –
45 | AQRSAHCSRPSGSSSSSGVLMVGP [CSNK1G1] | 3.65 ± 0.24 | 3.84 ± 0.14 | – | –
46 | AQTTSEAAMEGATLDQTTSEEAPG [HDAC6] | 5.64 ± 0.28 | 5.54 ± 0.24 | – | –

Row | Sequence | protein stability index [1] | protein stability index [2] | protein stability index [3] | protein stability index [4]
47 | ARDRQPSDFKTDKEGGQAGSGQRV [ELOA2] | 5.26 ± 0.33 | 5.26 ± 0.26 | – | –
48 | AREVKLLLLGAGESGKSTIVKQMK [GNAI1] | 2.73 ± 0.25 | 2.62 ± 0.26 | – | –
49 | ARGRHVGSSETNLLQHLLEACGRC [PYCR3] | 2.71 ± 0.88 | 3.17 ± 1.4 | – | –
50 | ARLMLESEYRSDIINAKSNDGWTP [ASB7] | 2.65 ± 0.28 | 3.15 ± 0.15 | – | –
51 | ARNNNDPGRLTEALCLEVRPTYFE [RNF180] | 4.97 ± 0.23 | 4.96 ± 0.18 | – | –
52 | ARRESGGRPIKPPKKDLEDGEVPQ [BRD3] | 5.58 ± 0.21 | 5.38 ± 0.32 | – | –
53 | ASEEGSESEGSESSGRSCRNERSI [SMG5] | 5.54 ± 0.3 | 5.45 ± 0.31 | – | –
54 | ASEYCPGKLSWGTMARALGRFKLS [WDR88] | 2.49 ± 0.42 | 2.67 ± 0.29 | – | –
55 | ASRTSTIFLNGNRERPLNVFCDME [TNXB] | 3.09 ± 0.42 | 3.07 ± 0.34 | – | –
56 | ASSPSIRQKKLMHKLQEEKAFREE [CCDC70] | 4.24 ± 0.17 | 4.66 ± 0.14 | – | –
57 | ATFVDKKRDLLGALKYWKKAMNMR [FEM1C] | 1.95 ± 0.17 | 2.13 ± 0.46 | – | –
58 | ATGFHFNAMTCEGCKGFFRRSMKR [VDR] | 2.63 ± 0.18 | 2.9 ± 0.21 | – | –
59 | ATTISTSEDGSYGTDVTRCICGFT [KMT2E] | 3.46 ± 0.21 | 3.6 ± 0.39 | – | –
60 | AVEGLTEAEEEELRAELTKVEEEI [TPD52L2] | 5.6 ± 0.25 | 5.54 ± 0.12 | – | –
61 | AYDWVGRPIPTPVGSVHVDSGASA [CSNK1G1] | 3.94 ± 0.29 | 4.08 ± 0.16 | – | –
62 | AYDYAKEVNSAEELEGLIADPDEM [FEM1C] | 5.68 ± 0.13 | 5.51 ± 0.56 | – | –
63 | CALGDHGCEHSCVSSEDSFVCQCF [MATN2] | 4.25 ± 0.35 | 4.33 ± 0.3 | – | –
64 | CEERWLVIDRKVYNISEFTRRHPG [FADS1] | 2.1 ± 0.3 | 2.15 ± 0.33 | – | –
65 | CEGKPYNQKSDIWALGCVLYELAS [NEK8] | 3.08 ± 0.74 | 2.88 ± 0.72 | – | –
66 | CFGLQPGCLLPDGSRMMAVAALVV [NLN] | 2.47 ± 0.23 | 2.75 ± 0.34 | – | –
67 | CHICHKKLYTGPGLAIHCMQVHKE [ZNF207] | 3.07 ± 0.27 | 3.25 ± 0.39 | – | –
68 | CHPVERGIKSKEAEEYRLKEHYLT [PSD2] | 4.21 ± 0.093 | 4.1 ± 0.2 | – | –
69 | CKKLSLELGGKNPAIIFEDANLDE [ALDH8A1] | 4.4 ± 0.11 | 4.32 ± 0.26 | – | –

Row | Sequence | protein stability index [1] | protein stability index [2] | protein stability index [3] | protein stability index [4]
70 | CLRDDVVFFIYLYQRWIYRVDPTR [CLPTM1] | 2.77 ± 0.35 | 2.81 ± 0.48 | – | –
71 | CLSCRLFYFKLTDLYKKVKKNSSP [CRY1] | 2.42 ± 0.11 | 2.08 ± 0.44 | – | –
72 | CPEGLEELLSAPPPDLGAQRRHGW [SPSB2] | 3.8 ± 0.34 | 3.83 ± 0.25 | – | –
73 | CQALDANLDANLAFASFTSGVVRI [TLE6] | 2.66 ± 0.67 | 2.56 ± 0.37 | – | –
74 | CRLAKGENGYGFHLNAIRGLPGSF [PDZK1] | 2.08 ± 0.69 | 2.07 ± 0.24 | – | –
75 | CTNTYVTGLSMIANGGAICAVTFF [OR4A15] | 3.25 ± 0.52 | 3.33 ± 0.38 | – | –
76 | CVPGQVFSPDGPSRFRKAYKPEQP [LOXL2] | 3.17 ± 0.19 | 3.33 ± 0.091 | – | –
77 | CWPMMDFLRCVTAALIYFAISITA [CMTM3] | 3.23 ± 0.49 | 3.34 ± 0.26 | – | –
78 | CWSFYGQGRKIAEVCCTSIVYATE [KCTD13] | 2.88 ± 0.6 | 2.97 ± 0.79 | – | –
79 | DAGEGIQCSQRMLSFSDALLSIIA [TMEM175] | 2.25 ± 0.091 | 2.35 ± 0.3 | – | –
80 | DAGPMVVHCSAGVGRTGCFIVIDA [PTPRD] | 2.73 ± 1.3 | 2.7 ± 0.76 | – | –
81 | DAMLKEASGPINFTMFLNLFGEKL [MYL5] | 2.23 ± 0.55 | 2.27 ± 0.28 | – | –
82 | DDDDEEEEVSEVESFILDQDDLEN [ANKRD17] | 5.765 ± 0.056 | 5.68 ± 0.13 | – | –
83 | DDIKESLESEGKNSKKEEPQELLQ [ATE1] | 5.65 ± 0.2 | 5.61 ± 0.13 | – | –
84 | DDLTSVTNHGYRVQVENPERFSSA [TRIM35] | 4.44 ± 0.24 | 4.588 ± 0.031 | – | –
85 | DEDDSEELEEDDGHGAEQAAAFPT [EHMT1] | 5.58 ± 0.27 | 5.7 ± 0.29 | – | –
86 | DEEDCPNPEEYNLDEPNAESDYTY [SRPK2] | 5.57 ± 0.37 | 5.66 ± 0.15 | – | –
87 | DEMLSYLPGGTTGLQLPSTLPVSG [TFE3] | 3.95 ± 0.26 | 4.15 ± 0.21 | – | –
88 | DEVIDVMQENITKVIERGERLDEL [VAMP4] | 4.77 ± 0.32 | 4.88 ± 0.28 | – | –
89 | DFDLDLVPWESDIWDINNQICTVK [ATF6] | 3.06 ± 0.3 | 3 ± 0.21 | – | –
